Test results published in patent publication US20120192294.

System: Aβ1-42 peptide, untreated (non-nitrated)

For “recombinant insulin degrading enzyme (IDE)”, the “degradation of Aβ (immunoblot with 6E10 after 2 h incubation)” value was “Analysis after 2 h of incubation showed decreased degradation of Aβ with increasing concentration of Sin-1”.
